# Experimental data taken from publication PMC7378079 (Scientific Reports, 2020).
# Substitutions are numbered along the chain they refer to. Names may count otherwise. Like-named read-outs stand apart in the source and are kept apart here.
# T1: TNKS2 (tankyrase 2) ARC4 (Homo sapiens, UniProt Q9H2K2)
# T1 construct: ARC4 domain (ankyrin repeat cluster 4); CFP-ARC4 fusion in FRET, unlabelled ARC4 in DSF
# T1 sequence (Q9H2K2 484-649 limits assumed): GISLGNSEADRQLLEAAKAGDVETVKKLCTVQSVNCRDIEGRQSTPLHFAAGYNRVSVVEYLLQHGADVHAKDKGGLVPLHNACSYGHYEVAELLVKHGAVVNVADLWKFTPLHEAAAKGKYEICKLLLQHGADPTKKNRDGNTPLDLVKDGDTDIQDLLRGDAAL
# T2: CFP-ARC2-3 (TNKS1) (human, mCerulean fusion omitted; conventional ARC limits)
# T2 chain: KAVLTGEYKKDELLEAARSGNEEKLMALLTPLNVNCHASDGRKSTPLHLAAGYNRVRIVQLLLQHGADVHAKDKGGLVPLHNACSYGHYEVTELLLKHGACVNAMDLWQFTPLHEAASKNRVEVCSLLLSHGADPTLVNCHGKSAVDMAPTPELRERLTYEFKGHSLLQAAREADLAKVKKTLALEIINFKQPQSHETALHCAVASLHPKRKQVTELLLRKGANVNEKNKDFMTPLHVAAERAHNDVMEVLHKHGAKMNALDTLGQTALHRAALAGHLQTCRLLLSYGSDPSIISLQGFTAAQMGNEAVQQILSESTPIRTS
# T3: CFP-ARC1 (TNKS1) (human, N-terminal mCerulean fusion omitted; conventional ARC limits)
# T3 chain: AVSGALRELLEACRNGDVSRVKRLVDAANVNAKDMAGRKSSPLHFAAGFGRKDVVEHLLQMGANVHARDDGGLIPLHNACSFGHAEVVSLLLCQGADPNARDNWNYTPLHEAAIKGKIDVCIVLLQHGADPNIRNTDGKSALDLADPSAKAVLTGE
# T4: CFP-ARC2 (TNKS1) (human, N-terminal mCerulean fusion omitted; conventional ARC limits)
# T4 chain: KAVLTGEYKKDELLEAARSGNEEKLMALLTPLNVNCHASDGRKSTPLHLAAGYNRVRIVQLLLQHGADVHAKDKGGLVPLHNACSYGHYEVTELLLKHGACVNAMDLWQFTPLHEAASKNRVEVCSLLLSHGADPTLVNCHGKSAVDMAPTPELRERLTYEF
# T5: CFP-ARC4 (TNKS1) (human, N-terminal mCerulean fusion omitted; limits by homology to TNKS2 ARC4 488-649)
# T5 chain: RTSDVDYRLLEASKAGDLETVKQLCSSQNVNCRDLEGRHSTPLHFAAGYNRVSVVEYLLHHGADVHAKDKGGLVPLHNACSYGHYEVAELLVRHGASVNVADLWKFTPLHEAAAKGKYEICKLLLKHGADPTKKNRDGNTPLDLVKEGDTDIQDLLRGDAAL
# T6: CFP-ARC5 (TNKS1) (human, N-terminal mCerulean fusion omitted; conventional ARC limits)
# T6 chain: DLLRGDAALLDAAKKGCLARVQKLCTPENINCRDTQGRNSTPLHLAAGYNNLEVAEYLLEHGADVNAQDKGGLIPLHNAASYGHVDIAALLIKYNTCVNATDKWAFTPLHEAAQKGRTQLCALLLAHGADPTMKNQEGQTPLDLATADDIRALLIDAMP
# T7: CFP-ARC1 (TNKS2) (human, N-terminal mCerulean fusion omitted; conventional ARC limits)
# T7 chain: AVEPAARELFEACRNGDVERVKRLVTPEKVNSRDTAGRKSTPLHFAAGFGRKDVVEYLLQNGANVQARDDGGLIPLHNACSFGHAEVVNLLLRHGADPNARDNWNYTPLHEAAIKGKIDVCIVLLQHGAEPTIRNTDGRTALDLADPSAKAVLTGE
# T8: CFP-ARC4 (TNKS2) (human, N-terminal mCerulean fusion omitted; limits from the TNKS2 ARC4 crystal construct convention (e.g. 3TWR), as Table S1 is not shown)
# T8 chain: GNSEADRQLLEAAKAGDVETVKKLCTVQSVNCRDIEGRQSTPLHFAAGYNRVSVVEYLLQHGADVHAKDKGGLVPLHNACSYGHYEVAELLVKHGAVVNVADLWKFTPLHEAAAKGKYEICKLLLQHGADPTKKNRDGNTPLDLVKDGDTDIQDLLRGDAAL
# T9: CFP-ARC5 (TNKS2) (human, N-terminal mCerulean fusion omitted; conventional ARC limits)
# T9 chain: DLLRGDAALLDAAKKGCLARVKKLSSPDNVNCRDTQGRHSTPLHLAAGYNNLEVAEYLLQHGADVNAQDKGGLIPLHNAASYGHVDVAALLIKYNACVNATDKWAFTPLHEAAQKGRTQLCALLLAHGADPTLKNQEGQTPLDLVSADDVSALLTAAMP
# T10: TNKS1 SAM(E1050K)-CFP (human, UniProt O95271 1030-1089, E1050K)
# T10 construct: human tankyrase 1 (TNKS1), sterile alpha-motif (SAM) domain; also called ML surface mutant of the TNKS1 SAM domain; source: E. coli BL21(DE3), purified (IMAC); not shown: mCerulean (CFP), C-terminal, kept
# T10 sequence (looked up): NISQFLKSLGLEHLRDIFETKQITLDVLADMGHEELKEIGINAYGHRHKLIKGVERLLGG
# T11: unlabelled TNKS2 ARC4 (human, His6-MBP removed by TEV; the residual N-terminal SM is omitted; limits from the TNKS2 ARC4 crystal construct convention)
# T11 chain: T8 chain
# B1: YFP-TBM (peptide)
# chain: REAGDGEE
# notes: also called TBM (REAGDGEE); YFP-fused TBM; source: E. coli BL21(DE3), purified (IMAC); not shown: mCitrine (YFP), N-terminal, kept
# B2: TNKS1 SAM(Y1073A)-YFP (domain or fragment, human, UniProt O95271 1030-1089, looked up)
# chain: T10 sequence (looked up) with K21E, Y44A
# notes: human tankyrase 1 (TNKS1), sterile alpha-motif (SAM) domain; also called EH surface mutant of the TNKS1 SAM domain; source: E. coli BL21(DE3), purified (IMAC); not shown: mCitrine (YFP), C-terminal, kept
# B3: TBM-peptide (REAGDGEE) (peptide)
# peptide: REAGDGEE
# notes: also called 8-mer TBM peptide; source: synthetic peptide, bought: JPT Peptide Technologies
# Legend:
# [1] = biological target: T1, TNKS2 (tankyrase 2) ARC4; assay: FRET competition with YFP-TBM peptide (Ki calculated from IC50); DSF Tm shift […] °C at […]; assay type: binding
# [2] = biological target: T1, TNKS2 (tankyrase 2) ARC4; assay: as above; assay type: binding; remark: listed apart in the source
# [3] = biological target: T2, CFP-ARC2-3 (TNKS1); assay: FRET or BRET; titration for Kd after Song et al.: CFP-fusion kept constant (50 nM to 1.1 µM), YFP-fusion 0-4,000 nM; FRET emission on excitation at 430 nm; assay buffer 10 mM Bis-Tris-Propane pH 7.0, 3% PEG20,000, 0.01% Triton-X100, 0.5 mM TCEP; 384-well plates, 4 replicates; the paper calls the constants an estimation; settings: both partners purified
# [4] = biological target: T3, CFP-ARC1 (TNKS1); assay: as above; settings: both partners purified
# [5] = biological target: T4, CFP-ARC2 (TNKS1); assay: as above; settings: both partners purified
# [6] = biological target: T2, CFP-ARC2-3 (TNKS1); assay: as above; settings: both partners purified
# [7] = biological target: T5, CFP-ARC4 (TNKS1); assay: as above; settings: both partners purified
# [8] = biological target: T6, CFP-ARC5 (TNKS1); assay: as above; settings: both partners purified
# [9] = biological target: T7, CFP-ARC1 (TNKS2); assay: as above; settings: both partners purified
# [10] = biological target: T8, CFP-ARC4 (TNKS2); assay: as above; settings: both partners purified
# [11] = biological target: T9, CFP-ARC5 (TNKS2); assay: as above; settings: both partners purified
# [12] = biological target: T10, TNKS1 SAM(E1050K)-CFP; assay: as above; settings: both partners purified
# [13] = biological target: T11, unlabelled TNKS2 ARC4; assay: differential scanning fluorimetry; 5 µM unlabelled TNKS2 ARC4, 5x SYPRO Orange, 100 µM TBM peptide; assay buffer pH 7.0, 1% DMSO; 20-95 °C at 1 °C/min; 4 replicates; settings: both partners purified
molecule,measurement,setting,value
"O=C(O)c1cc(O)c2c(Cl)cc(Cl)cc2n1 [DCKA, 5,7-dichlorokynurenic acid]",Ki,[1],62 µM
O=c1[nH]c2cc(C(F)(F)F)c(N3CCOCC3)cc2n(CP(=O)(O)O)c1=O [Fanapanel],Ki,[2],20 µM
B1,Kd,[3],13 nM
same,Kd,[4],2600 nM
same,Kd,[5],8.2 nM
same,Kd,[6],12 nM
same,Kd,[7],45 nM
same,Kd,[8],27 nM
same,Kd,[9],970 nM
same,Kd,[10],35 nM
same,Kd,[11],33 nM
B2,Kd,[12],560 nM
B3,Tm shift at 100 µM,[13],2.94 ± 0.16 °C
